From the nanobody polyreactivity screen of Harvey et al. (2022)

assay: yeast display, Sf9 membrane polyspecificity reagent, FACS + sequencing; frameworks hold sequencing errors
Summary of the method: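 Galactose-induced (36–48 hours) yeast carrying a synthetic nanobody display library were exposed to 10% biotinylated, detergent-solubilized Sf9 membrane reagent at 4 °C for 1 hour. FACS followed streptavidin microbead enrichment, using low and high (top ~1%) gates for expression (anti-HA) and reagent binding (streptavidin). Colony PCR, MiSeq 2 × 250 sequencing and CDR-length filtering followed. Labels for polyreactivity reflect the gate of origin.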

Sequence	polyreactivity (PSR sort gate)
QVQLQESGGGLVQAGGSLRLSCAASGNIVDADIMGWYRQEPGKERELVASITDGGSTNYADSVKGRFTISRDNAKNTVYLQMNSLKPEDTAVYYCAAIAYPDIPTYFDYDSEYFYWGQGTQVTVSS	low polyreactivity
QVQLQESGGGLVQAGGSLRLSCAASGSIFADVQMGWYRQAPGKERELVASINFRGTTTYNADSVKGRITISRDNSKNTVYLQMSSLKPEDTAVYYCSVGRSEGGDYAYWGQGTHVTVSS	low polyreactivity
QVQLQESGGGLVQAGGSLRLSCAASGSIFHLHIKCWYRQAPGKERESVAAISYGTSTYYADRVKGRFTICRDNAKNTVYLQMNSPKPDDTAVYYCAALFLVSKHHHYWGEGTQVTVSS	low polyreactivity
QVQLQESGGGLVQAGGSLRLSCAASGSIFKVVDMGLYRQAPAKEREFVATIGEGGNTYYADSVKGRFTISRDNAKNTVYLQMNSLKTEDTAVYFYAVVLGTSYRYTYWGQGTKVTVSS	low polyreactivity
QVQLQESGGGLVQAGGSLRLSCAASGSIFKVVDMGLYRQEPAKEREFVATIGEGGNTYYADSVKGRFTISRDNAKNTVFLQMNSLKPEDTAVYFYAVVLGTSYRYTYWGQGTQVTVSS	low polyreactivity
QVQLQESGGGLVQAGGSLRLSCAASGSIFYEFYMGWYRQAPGKERELVAAIANGASTHYADSVKGRFTISRDNSNNTVYLQMSSLKQEDTAVYYCAVNTTSDIDYIYWGQGTQVNVSS	low polyreactivity
QVQLQESGGGLVQAGGSLRLSCAASGSILFSTLMGWSRQAPGKERELVATITTGTFTNYAGSVKGRFTISRDNAENTVYLQMNSLRPEDTAVYYSADYANHKAGFYYWGQGTQVTVSS	high polyreactivity
QVQLQESGGGLVQAGGSLRLSCAASGSISAVGAMGWYRQAPGKEREFAASVNWGTNTNYADSVKGRFTISRDNAKNTLYLQMNSLKPEDTAVYYCAVLPDWETRHEYWGHGTQVTVSS	low polyreactivity
QVQLQESGGGLVQAGGSLRLSCAASGSISGPHVMGWYRQAPGKEREFVAAINVGANTYYADNVKGRFTISRDNANNTVYLQMNSLKPEDTAVYYCAAVYYGDIGHEYWGQGTQVTVSC	low polyreactivity
QVQLQESGGGLVQAGGSLRLSCAASGSISRLDYMGWYRQASGKERELVAAIDNGRTTYYAESVKGRLTISRDNAKYTVYLQMNSLKPEDTAVYCCAAVRGRGGTHAYWGQGTQVTVSG	low polyreactivity
QVQLQESGGGLVQAGGSLRLSCAASGSISYPRTMGWYSQAPGQEREFVAGIGVGGNTYYAESVKGRFTISSDNAKNTVYLQMNSQKPEDTAVYYCNAEWYYPYYYSRMDYWGLGTQVTVSS	low polyreactivity
QVQLQESGGGLVQAGGSLRLSCAASGSIVVSVTMGWYRKAPGKESELVASIGRGSTTNHADSVKGRFTISRDNAKNIVDLLLNSLKPEDNAVYYCAALESYGKYHGYWGEGTQVTVSS	low polyreactivity
QVQLQESGGGLVQAGGSLRLSCAASGTIFRFRYMGWHRQAPGKERELVAGINGGTTTYYADSVIGRFTISRVNAKNTVYLQMKSLKPDDTAVYNCAAGASRLTYYDYWGQGTQVTVSS	low polyreactivity
QVQLQESGGGLVQAGGSLRLSCAASGTIFRISDMGSYRQAPGKEREFVAAITYGANTYYADSGKGRFTISRDNAKNTVSLQMNSLKPEDTAVYYCAVPPVKETILDYWGQGTQVTVSS	low polyreactivity
QVQLQESGGGLVQAGGSLRLSCAASGTISDSGLMGWYRQAPGKERELVAGISSGGITNYADSVKGRFTISRDNAKNTVYLQMNSLKPDDTAVYWGQGTQVTVSS	low polyreactivity
QVQLQESGGGLVQAGGSLRLSCAASGTISPLPAMGWYRQAPGKEREFVAGIDTGAITNYADSVKGRFTISRDNAKITVYLQMNSLKPEDTAVYYCAVFPAAYDYYERYYTYWGQGTQVTVSS	low polyreactivity
QVQLQESGGGLVQAGGSLRLSCAASGTISPLPAMGWYRQAPGKEREFVAGIDTGAITNYADSVKGRFTISRDNAKNTVYLQMNSLKPEDTAVYYCAADLFLDGSSQYAPNWWPDGWNTYRLLGGYWGQGTQVTVSS	low polyreactivity
